Source: IntAct's records for PubMed 31515488

B1: Ensconsin (Homo sapiens), Q14244 (parent)
chain: MAELGAGGDGHRGGDGAVRSETAPDSYKVQDKKNASSRPASAISGQNNNHSGNKPDPPPVLRVDDRQRLARERREEREKQLAAREIVWLEREERARQHYEKHLEERKKRLEEQRQKEERRRAAVEEKRRQRLEEDKERHEAVVRRTMERSQKPKQKHNRWSWGGSLHGSPSIHSADPDRRSVSTMNLSKYVDPVISKRLSSSSATLLNSPDRARRLQLSPWESSVVNRLLTPTHSFLARSKSTAALSGEAASCSPIIMPYKAAHSRNSMDRPKLFVTPPEGSSRRRIIHGTASYKKERERENVLFLTSGTRRAVSPSNPKARQPARSRLWLPSKSLPHLPGTPRPTSSLPPGSVKAAPAQVRPPSPGNIRPVKREVKVEPEKKDPEKEPQKVANEPSLKGRAPLVKVEEATVEERTPAEPEVGPAAPAMAPAPASAPAPASAPAPAPVPTPAMVSAPSSTVNASASVKTSAGTTDPEEATRLLAEKRRLAREQREKEERERREQEELERQKREELAQRVAEERTTRREEESRRLEAEQAREKEEQLQRQAEERALREREEAERAQRQKEEEARVREEAERVRQEREKHFQREEQERLERKKRLEEIMKRTRRTEATDKKTSDQRNGDIAKGALTGGTEVSALPCTTNAPGNGKPVGSPHVVTSHQSKVTVESTPDLEKQPNENGVSVQNENFEEIINLPIGSKPSRLDVTNSESPEIPLNPILAFDDEGTLGPLPQVDGVQTQQTAEVI
B2: Actin-associated protein FAM107A (Homo sapiens), O95990 (parent)
chain: MYSEIQRERADIGGLMARPEYREWNPELIKPKKLLNPVKASRSHQELHRELLMNHRRGLGVDSKPELQRVLEHRRRNQLIKKKKEELEAKRLQCPFEQELLRRQQRLNQLEKPPEKEEDHAPEFIKVRENLRRIATLTSEEREL
B3: Protein SPMIP9 (Homo sapiens), Q96LM6 (parent)
chain: MAGVKYPGQDPVDLDIYQSSHMVDYQPYRKHKYSRVTPQEQAKLDAQLRDKEFYRPIPNPNPKLTDGYPAFKRPHMTAKDLGLPGFFPSQEHEATREDERKFTSTCHFTYPASHDLHLAQGDPNQVLQSADFPCLVDPKHQPAAEMAKGYLLLPGCPCLHCHIVKVPILNRWGPLMPFYQ
partner: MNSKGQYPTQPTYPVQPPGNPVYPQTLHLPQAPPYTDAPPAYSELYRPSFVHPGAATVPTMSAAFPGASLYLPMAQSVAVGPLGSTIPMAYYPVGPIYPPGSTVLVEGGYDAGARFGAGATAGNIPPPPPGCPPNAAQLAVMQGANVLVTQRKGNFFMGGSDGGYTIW
B4: Ligand of Numb protein X 2 (Homo sapiens), Q8N448 (parent)
chain: MGTTSDEMVSVEQTSSSSLNPLCFECGQQHWTRENHLYNYQNEVDDDLVCHICLQPLLQPLDTPCGHTFCYKCLRNFLQEKDFCPLDRKRLHFKLCKKSSILVHKLLDKLLVLCPFSSVCKDVMQRCDLEAHLKNRCPGASHRRVALERRKTSRTQAEIENENGPTLLDPAGTLSPEADCLGTGAVPVERHLTSASLSTWSEEPGLDNPAFEESAGADTTQQPLSLPEGEITTIEIHRSNPYIQLGISIVGGNETPLINIVIQEVYRDGVIARDGRLLAGDQILQVNNYNISNVSHNYARAVLSQPCNTLHLTVLRERRFGNRAHNHSDSNSPREEIFQVALHKRDSGEQLGIKLVRRTDEPGVFILDLLEGGLAAQDGRLSSNDRVLAINGHDLKYGTPELAAQIIQASGERVNLTIARPGKPQPGNTIREAGNHSSSSQHHTPPPYYSRPSSHKDLTQCVTCQEKHITVKKEPHESLGMTVAGGRGSKSGELPIFVTSVPPHGCLARDGRIKRGDVLLNINGIDLTNLSHSEAVAMLKASAASPAVALKALEVQIVEEATQNAEEQPSTFSENEYDASWSPSWVMWLGLPSTLHSCHDIVLRRSYLGSWGFSIVGGYEENHTNQPFFIKTIVLGTPAYYDGRLKCGDMIVAVNGLSTVGMSHSALVPMLKEQRNKVTLTVICWPGSLV
partner: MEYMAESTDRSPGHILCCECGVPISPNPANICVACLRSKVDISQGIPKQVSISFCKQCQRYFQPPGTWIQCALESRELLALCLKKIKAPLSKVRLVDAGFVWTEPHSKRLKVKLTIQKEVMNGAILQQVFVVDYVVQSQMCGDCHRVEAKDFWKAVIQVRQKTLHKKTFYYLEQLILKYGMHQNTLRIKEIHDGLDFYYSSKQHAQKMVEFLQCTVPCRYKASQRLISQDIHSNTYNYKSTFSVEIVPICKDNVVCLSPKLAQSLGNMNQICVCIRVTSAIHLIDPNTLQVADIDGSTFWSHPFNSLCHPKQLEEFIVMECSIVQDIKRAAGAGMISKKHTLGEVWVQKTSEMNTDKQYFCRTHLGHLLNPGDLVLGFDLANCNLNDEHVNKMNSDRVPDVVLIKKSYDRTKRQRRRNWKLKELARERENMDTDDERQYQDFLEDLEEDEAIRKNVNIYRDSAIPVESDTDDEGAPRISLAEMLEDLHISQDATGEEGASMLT
B5: Spermatogenesis-associated protein 2 (Homo sapiens), Q9UM82 (parent)
chain: MGKPSSMDTKFKDDLFRKYVQFHESKVDTTTSRQRPGSDECLRVAASTLLSLHKVDPFYRFRLIQFYEVVESSLRSLSSSSLRALHGAFSMLETVGINLFLYPWKKEFRSIKTYTGPFVYYVKSTLLEEDIRAILSCMGYTPELGTAYKLRELVETLQVKMVSFELFLAKVECEQMLEIHSQVKDKGYSELDIVSERKSSAEDVRGCSDALRRRAEGREHLTASMSRVALQKSASERAAKDYYKPRVTKPSRSVDAYDSYWESRKPPLKASLSLRKEPVATDVGDDLKDEIIRPSPSLLTMASSPHGSPDVLPPASPSNGPALLRGTYFSTQDDVDLYTDSEPRATYRRQDALRPDVWLLRNDAHSLYHKRSPPAKESALSKCQSCGLSCSSSLCQRCDSLLTCPPASKPSAFPSKASTHDSLAHGASLREKYPGQTQGLDRLPHLHSKSKPSTTPTSRCGFCNRPGATNTCTQCSKVSCDACLSAYHYDPCYKKSELHKFMPNNQLNYKSTQLSHLVYR

Variants of: B1
Settings: with ccdb1_human CCNDBP1, O95273
Sequence of ccdb1_human CCNDBP1, O95273 (O95273 whole entry): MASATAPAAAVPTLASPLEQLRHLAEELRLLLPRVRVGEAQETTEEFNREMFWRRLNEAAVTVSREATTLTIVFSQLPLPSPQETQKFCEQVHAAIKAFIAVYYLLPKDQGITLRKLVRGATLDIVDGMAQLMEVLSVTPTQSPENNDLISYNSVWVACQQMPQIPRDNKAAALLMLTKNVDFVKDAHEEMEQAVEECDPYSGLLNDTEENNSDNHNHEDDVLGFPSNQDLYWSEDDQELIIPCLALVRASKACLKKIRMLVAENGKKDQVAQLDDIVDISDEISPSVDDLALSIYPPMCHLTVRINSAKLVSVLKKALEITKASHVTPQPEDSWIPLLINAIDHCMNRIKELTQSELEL

| effect of a mutation on the interaction | Variant |
| --- | --- |
| with no effect | P649L |

Variants of: B2
Settings: with cc136_human CCDC136, Q96JN2
Sequence of cc136_human CCDC136, Q96JN2 (Q96JN2 whole entry): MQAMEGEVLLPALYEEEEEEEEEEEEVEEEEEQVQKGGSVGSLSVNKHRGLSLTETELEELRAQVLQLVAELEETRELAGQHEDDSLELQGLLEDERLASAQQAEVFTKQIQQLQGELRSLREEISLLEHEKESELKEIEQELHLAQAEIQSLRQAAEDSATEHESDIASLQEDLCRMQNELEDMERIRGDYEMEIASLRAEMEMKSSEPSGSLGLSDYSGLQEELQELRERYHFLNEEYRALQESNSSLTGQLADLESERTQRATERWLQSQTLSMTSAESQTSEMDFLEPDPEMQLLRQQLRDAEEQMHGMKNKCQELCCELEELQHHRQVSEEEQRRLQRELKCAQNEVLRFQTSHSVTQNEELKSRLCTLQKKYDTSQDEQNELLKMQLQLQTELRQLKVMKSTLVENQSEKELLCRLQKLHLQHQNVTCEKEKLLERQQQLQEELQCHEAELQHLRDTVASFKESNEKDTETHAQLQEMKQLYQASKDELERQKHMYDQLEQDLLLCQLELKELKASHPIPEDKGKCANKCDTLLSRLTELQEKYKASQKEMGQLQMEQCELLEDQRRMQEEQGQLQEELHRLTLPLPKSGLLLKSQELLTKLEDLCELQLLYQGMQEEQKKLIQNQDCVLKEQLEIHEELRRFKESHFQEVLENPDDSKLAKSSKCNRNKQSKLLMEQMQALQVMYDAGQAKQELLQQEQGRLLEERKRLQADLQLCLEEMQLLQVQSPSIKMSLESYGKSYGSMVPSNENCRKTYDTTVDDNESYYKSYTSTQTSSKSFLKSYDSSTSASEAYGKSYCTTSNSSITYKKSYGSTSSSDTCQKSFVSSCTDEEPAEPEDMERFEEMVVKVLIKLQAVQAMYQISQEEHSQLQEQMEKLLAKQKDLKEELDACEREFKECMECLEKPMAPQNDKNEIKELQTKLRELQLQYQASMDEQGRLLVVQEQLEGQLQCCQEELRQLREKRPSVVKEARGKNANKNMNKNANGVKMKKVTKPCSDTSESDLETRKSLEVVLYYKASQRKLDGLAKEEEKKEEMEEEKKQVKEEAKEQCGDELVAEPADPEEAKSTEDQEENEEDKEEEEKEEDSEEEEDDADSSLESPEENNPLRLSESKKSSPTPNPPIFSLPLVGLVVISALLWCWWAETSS

| effect of a mutation on the interaction | Variant |
| --- | --- |
| disrupting interaction strength | E141Q |
| with no effect | S63R |

Variants of: B2
Settings: with traf2_human TRAF2, Q12933

| effect of a mutation on the interaction | Variant |
| --- | --- |
| disrupting interaction strength | E141Q |
| with no effect | S63R |

Variants of: B3
Settings: with dazp2_human DAZAP2, Q15038

| effect of a mutation on the interaction | Variant |
| --- | --- |
| with no effect | I16V |
| with no effect | Y68H |
| with no effect | P177S |

Variants of: B4
Settings: with nmd3_human NMD3, Q96D46

| effect of a mutation on the interaction | Variant |
| --- | --- |
| with no effect | V145I |
| with no effect | T183I |

Variants of: B5
Settings: with traf2_human TRAF2, Q12933
Target sequence in this assay (Q12933 whole entry): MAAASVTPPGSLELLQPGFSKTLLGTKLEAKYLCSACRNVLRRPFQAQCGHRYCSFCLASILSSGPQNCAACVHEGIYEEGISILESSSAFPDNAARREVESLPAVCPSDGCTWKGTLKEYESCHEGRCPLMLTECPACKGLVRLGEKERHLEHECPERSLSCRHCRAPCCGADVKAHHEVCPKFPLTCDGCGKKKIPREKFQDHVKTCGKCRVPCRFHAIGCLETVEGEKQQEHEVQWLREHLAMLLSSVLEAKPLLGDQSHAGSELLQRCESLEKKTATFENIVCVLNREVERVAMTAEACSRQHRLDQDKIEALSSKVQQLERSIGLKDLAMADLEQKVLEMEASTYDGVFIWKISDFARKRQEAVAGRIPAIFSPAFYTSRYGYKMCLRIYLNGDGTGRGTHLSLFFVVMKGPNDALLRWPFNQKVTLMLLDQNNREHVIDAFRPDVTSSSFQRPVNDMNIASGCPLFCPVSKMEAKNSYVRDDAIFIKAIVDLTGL

| effect of a mutation on the interaction | Variant |
| --- | --- |
| disrupting interaction strength | L443F |
